Assay results taken from article PMC4242096 (Nature structural & molecular biology, 2013).
Positions count from the first letter of the chain named. Names may count otherwise. Non-standard residues stand in square brackets, D forms with d. No end group written: not given here. pY = N[C@@H](Cc1ccc(OP(=O)(O)O)cc1)C(=O)O; pT = C[C@@H](OP(=O)(O)O)[C@H](N)C(=O)O; pS = N[C@@H](COP(=O)(O)O)C(=O)O

T1: S. cerevisiae Cks (Cks1) (Saccharomyces cerevisiae, UniProt P20486)
T1 sequence (P20486 1-150): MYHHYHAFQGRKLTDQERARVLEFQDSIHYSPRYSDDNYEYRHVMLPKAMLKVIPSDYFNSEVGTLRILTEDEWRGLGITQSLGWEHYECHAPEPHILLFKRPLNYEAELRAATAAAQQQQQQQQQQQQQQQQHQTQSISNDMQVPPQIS

T2: Cdc6^(1–48;T23A T39A S43A), only T7 phosphorylated (UniProt P09119 1-48, T23A | T39A | S43A, only T7 phosphorylated)
T2 chain (looked up): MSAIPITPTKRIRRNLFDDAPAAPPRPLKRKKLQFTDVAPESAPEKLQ

T3: Cdc6^(1–48;T7A T39A S43A), only T23 phosphorylated (UniProt P09119 1-48, T7A | T39A | S43A, only T23 phosphorylated)
T3 chain (looked up): T2 chain (looked up) with T7A, A23T

B1: S. cerevisiae Cks (Cks1), wild type (natural protein, UniProt P20486 1-150, looked up)
chain: T1 sequence (P20486 1-150)

Experiments:
[1] = molecular target: phosSic1ΔC ΔC (Saccharomyces cerevisiae) (UniProt P38634); conditions: cited from earlier work
[2] = molecular target: phosSic1 N-terminus N-terminus (Saccharomyces cerevisiae) (UniProt P38634); conditions: cited from earlier work
phosphorylated Cdc6^1–48 = phosphorylated Cdc6^1–48 (UniProt P09119); assay: ITC
S. cerevisiae Cks (Cks1) = molecular target: T1, S. cerevisiae Cks (Cks1); assay: Isothermal titration calorimetry; format: binding; conditions: ITC; for Cks1 Kd (µM): phosphorylated Cdk substrate peptides, value ± error as printed
[3] = molecular target: T2, Cdc6^(1–48;T23A T39A S43A), only T7 …; assay: ITC
[4] = molecular target: T3, Cdc6^(1–48;T7A T39A S43A), only T23 …; assay: ITC
[5] = molecular target: B1; assay: ITC

phosSic1ΔC ΔC (Saccharomyces cerevisiae), sequence (P38634 1-215, stated change not applied): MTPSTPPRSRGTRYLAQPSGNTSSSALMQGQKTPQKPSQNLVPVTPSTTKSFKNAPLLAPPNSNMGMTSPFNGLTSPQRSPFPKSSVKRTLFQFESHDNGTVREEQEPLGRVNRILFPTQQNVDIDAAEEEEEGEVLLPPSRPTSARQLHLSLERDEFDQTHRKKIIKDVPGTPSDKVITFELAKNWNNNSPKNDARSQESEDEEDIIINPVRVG
phosSic1 N-terminus N-terminus (Saccharomyces cerevisiae), sequence (P38634 1-100): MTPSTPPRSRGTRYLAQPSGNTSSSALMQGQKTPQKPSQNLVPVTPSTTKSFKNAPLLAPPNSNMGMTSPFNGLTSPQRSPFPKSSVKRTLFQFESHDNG

Cks1 (from UniProt P20486)
Kd [1]: 20 µM | Kd [2]: 11 µM

S. cerevisiae Cks (Cks1), wild type (from UniProt P20486 1-150) (natural protein)
Kd (phosphorylated Cdc6^1–48): 9.8 µM | stoichiometry N (phosphorylated Cdc6^1–48): 2

phosCdc6^1–48: purified N-terminal domain of Cdc6 (residues 1–48) phosphorylated with recombinant Cdk (MSAIPI[pT]PTKRIRRNLFDDAPA[pT]PPRPLKRKKLQFTDV[pT]PES[pS]PEKLQ)
stoichiometry parameter n (Cks1 molecules per Cdc6 molecule) (S. cerevisiae Cks (Cks1); data fit to a one site model): ≈ 2

SAIPI[pS]PTK [phosCdc6^2–10; pT7pS]
Cks1 Kd (µM) (S. cerevisiae Cks (Cks1)): no heat

SAIPI[pY]PTK [phosCdc6^2–10; pT7pY]
Cks1 Kd (µM) (S. cerevisiae Cks (Cks1)): no heat

B1
stoichiometry N [3]: ~1 | stoichiometry N [4]: ~1

AIPI[pT]PT [phosCdc6^3–9]
Kd [5]: 61 ± 9 µM

SAIPI[pT]PTK [phosCdc6^2–10]
Kd [5]: 130 ± 60 µM

TPS[pT]PKRS [phosSic1^(2–9; P7K)]
Kd [5]: 120 ± 20 µM

TYS[pT]PPRS [phosSic1^(2–9; P3Y)]
Kd [5]: 90 ± 50 µM

EEIS[pT]PTR [phosSwe1^369–376]
Kd [5]: 160 ± 70 µM

RIPE[pT]PVK [phosSwe1^192–199]
Kd [5]: 60 ± 10 µM

ESVT[pT]PIT [phosSwe1^117–124]
Kd [5]: 170 ± 90 µM

AIPI[pT]P [phosCdc6^3–8]
Kd [5]: 81 ± 6 µM

TPS[pT]PTRS [phosSic1^(2–9; P7T)]
Kd [5]: 70 ± 20 µM

SAIPI[pT]P [phosCdc6^2–8]
Kd [5]: 62 ± 2 µM

TPS[pT]PPRS [phosSic1^2–9]
Kd [5]: 95 ± 8 µM
